Test results from patent US20040054158A1.

How the values were obtained:
[1] = target: GL50 (ICOS-ligand) on mouse cells (WEHI 231, undifferentiated CCE ES cells, Balb/C and RAG1 -/- splenocytes) (mouse) (UniProt Q9JHJ8); test: flow cytometry, Balb/C splenocytes, anti-CD3 stained subset
[2] = target: GL50 (ICOS-ligand) on mouse cells (WEHI 231, undifferentiated CCE ES cells, Balb/C and RAG1 -/- splenocytes) (mouse) (UniProt Q9JHJ8); test: flow cytometry, Balb/C splenocytes, anti-CD45R/B220 stained subset
[3] = target: GL50 (ICOS-ligand) on mouse cells (WEHI 231, undifferentiated CCE ES cells, Balb/C and RAG1 -/- splenocytes) (mouse) (UniProt Q9JHJ8); test: flow cytometry, RAG1-/- splenocytes, anti class II stained subset
[4] = target: GL50 (ICOS-ligand) on mouse cells (WEHI 231, undifferentiated CCE ES cells, Balb/C and RAG1 -/- splenocytes) (mouse) (UniProt Q9JHJ8); test: flow cytometry, Balb/C splenocytes, anti-CD8a stained subset
[5] = target: GL50 (ICOS-ligand) on mouse cells (WEHI 231, undifferentiated CCE ES cells, Balb/C and RAG1 -/- splenocytes) (mouse) (UniProt Q9JHJ8); test: flow cytometry, Balb/C splenocytes, anti-pan NK stained subset
[6] = target: GL50 (ICOS-ligand) on mouse cells (WEHI 231, undifferentiated CCE ES cells, Balb/C and RAG1 -/- splenocytes) (mouse) (UniProt Q9JHJ8); test: flow cytometry, indirect staining of undifferentiated CCE ES cells
[7] = target: GL50 (ICOS-ligand) on mouse cells (WEHI 231, undifferentiated CCE ES cells, Balb/C and RAG1 -/- splenocytes) (mouse) (UniProt Q9JHJ8); test: flow cytometry, Balb/C splenocytes, anti CD69 stained subset
[8] = target: GL50 (ICOS-ligand) on mouse cells (WEHI 231, undifferentiated CCE ES cells, Balb/C and RAG1 -/- splenocytes) (mouse) (UniProt Q9JHJ8); test: flow cytometry, Balb/C splenocytes, anti CD40 stained subset
[9] = target: GL50 (ICOS-ligand) on mouse cells (WEHI 231, undifferentiated CCE ES cells, Balb/C and RAG1 -/- splenocytes) (mouse) (UniProt Q9JHJ8); test: flow cytometry, RAG1-/- splenocytes, CD11b+ subset (text value; the table prints 31%)
[10] = target: GL50 (ICOS-ligand) on mouse cells (WEHI 231, undifferentiated CCE ES cells, Balb/C and RAG1 -/- splenocytes) (mouse) (UniProt Q9JHJ8); test: flow cytometry, Balb/C splenocytes, anti-CD24 stained subset
[11] = target: GL50 (ICOS-ligand) on mouse cells (WEHI 231, undifferentiated CCE ES cells, Balb/C and RAG1 -/- splenocytes) (mouse) (UniProt Q9JHJ8); test: flow cytometry, RAG1-/- splenocytes, anti-CD45R/B220 stained subset
[12] = target: GL50 (ICOS-ligand) on mouse cells (WEHI 231, undifferentiated CCE ES cells, Balb/C and RAG1 -/- splenocytes) (mouse) (UniProt Q9JHJ8); test: flow cytometry, RAG1-/- splenocytes, anti CD69 stained subset
[13] = target: GL50 (ICOS-ligand) on mouse cells (WEHI 231, undifferentiated CCE ES cells, Balb/C and RAG1 -/- splenocytes) (mouse) (UniProt Q9JHJ8); test: flow cytometry, Balb/C splenocytes, anti class II stained subset
[14] = target: GL50 (ICOS-ligand) on mouse cells (WEHI 231, undifferentiated CCE ES cells, Balb/C and RAG1 -/- splenocytes) (mouse) (UniProt Q9JHJ8); test: flow cytometry, RAG1-/- splenocytes, anti-pan NK stained subset
[15] = target: GL50 (ICOS-ligand) on mouse cells (WEHI 231, undifferentiated CCE ES cells, Balb/C and RAG1 -/- splenocytes) (mouse) (UniProt Q9JHJ8); test: flow cytometry, RAG1-/- splenocytes, anti-CD11C stained subset
[16] = target: GL50 (ICOS-ligand) on mouse cells (WEHI 231, undifferentiated CCE ES cells, Balb/C and RAG1 -/- splenocytes) (mouse) (UniProt Q9JHJ8); test: flow cytometry, Balb/C splenocytes, anti-CD19 stained subset
[17] = target: GL50 (ICOS-ligand) on mouse cells (WEHI 231, undifferentiated CCE ES cells, Balb/C and RAG1 -/- splenocytes) (mouse) (UniProt Q9JHJ8); test: flow cytometry, Balb/C splenocytes, anti-CD11C stained subset
[18] = target: GL50 (ICOS-ligand) on mouse cells (WEHI 231, undifferentiated CCE ES cells, Balb/C and RAG1 -/- splenocytes) (mouse) (UniProt Q9JHJ8); test: flow cytometry, Balb/C splenocytes, anti-CD11B stained subset
[19] = target: GL50 (ICOS-ligand) on mouse cells (WEHI 231, undifferentiated CCE ES cells, Balb/C and RAG1 -/- splenocytes) (mouse) (UniProt Q9JHJ8); test: flow cytometry, titered staining of WEHI 231 cells
[20] = target: GL50 (ICOS-ligand) on mouse cells (WEHI 231, undifferentiated CCE ES cells, Balb/C and RAG1 -/- splenocytes) (mouse) (UniProt Q9JHJ8); test: flow cytometry, Balb/C splenocytes, anti-CD4 stained subset
[21] = target: GL50 (ICOS-ligand) on mouse cells (WEHI 231, undifferentiated CCE ES cells, Balb/C and RAG1 -/- splenocytes) (mouse) (UniProt Q9JHJ8); test: flow cytometry, RAG1-/- splenocytes, anti-CD4 stained subset
[22] = target: GL50 (ICOS-ligand) on mouse cells (WEHI 231, undifferentiated CCE ES cells, Balb/C and RAG1 -/- splenocytes) (mouse) (UniProt Q9JHJ8); test: flow cytometry, RAG1-/- splenocytes, anti-CD11B stained subset
[23] = target: GL50 (ICOS-ligand) on mouse cells (WEHI 231, undifferentiated CCE ES cells, Balb/C and RAG1 -/- splenocytes) (mouse) (UniProt Q9JHJ8); test: flow cytometry, RAG1-/- splenocytes, anti-CD24 stained subset

- % ICOS-Ig positive [1]: 10%
- % ICOS-Ig positive [2]: 97%
- % ICOS-Ig positive [3]: 3%
- % ICOS-Ig positive [4]: 10%
- % ICOS-Ig positive [5]: 20%
- fluorescence shift over background [6]: 0.5 log
- % ICOS-Ig positive [7]: 25%
- % ICOS-Ig positive [8]: 97%
- % ICOS-Ig positive [9]: 35%
- % ICOS-Ig positive [10]: 94%
- % ICOS-Ig positive [11]: 5%
- % ICOS-Ig positive [12]: 5%
- % ICOS-Ig positive [13]: 95%
- % ICOS-Ig positive [14]: 3%
- % ICOS-Ig positive [15]: 55%
- % ICOS-Ig positive [16]: 97%
- % ICOS-Ig positive [17]: 43%
- % ICOS-Ig positive [18]: 26%
- concentration from which staining was minimally detectable [19]: 1 µg/mL
- % ICOS-Ig positive [20]: 8%
- % ICOS-Ig positive [21]: 45%
- % ICOS-Ig positive [22]: 31%
- % ICOS-Ig positive [23]: 28%
B1: mICOS-mIgG2am (Fc fusion)
chain: EINGSADHRMFSFHNGGVQISCKYPETVQQLKMRLFREREVLCELTKTKGSGNAVSIKNPMLCLYHLSNNSVSFFLNNPDSSQGSYYFCSLSIFDPPPFQERNLSGGYLHIYESQLCCQLKLEPRGPTIKPCPPCKCPAPNLEGGPSVFIFPPKIKDVLMISLSPIVTCVVVDVSEDDPDVQISWFVNNVEVHTAQTQTHREDYNSTLRVVSALPIQHQDWMSGKAFACAVNNKDLPAPIERTISKPKGSVRAPQVYVLPPPEEEMTKKQVTLTCMVTDFMPEDIYVEWTNNGKTELNYKNTEPVLDSDGSYFMYSKLRVEKKNWVERNSYSCSVVHEGLHNHHTTKSFSRTPGK
